From patent publication US20220098577 come the findings set out here.

The target of series [1] is T1, T4 DNA ligase (Enterobacteria phage T4?) (UniProt P00970).
T1 sequence: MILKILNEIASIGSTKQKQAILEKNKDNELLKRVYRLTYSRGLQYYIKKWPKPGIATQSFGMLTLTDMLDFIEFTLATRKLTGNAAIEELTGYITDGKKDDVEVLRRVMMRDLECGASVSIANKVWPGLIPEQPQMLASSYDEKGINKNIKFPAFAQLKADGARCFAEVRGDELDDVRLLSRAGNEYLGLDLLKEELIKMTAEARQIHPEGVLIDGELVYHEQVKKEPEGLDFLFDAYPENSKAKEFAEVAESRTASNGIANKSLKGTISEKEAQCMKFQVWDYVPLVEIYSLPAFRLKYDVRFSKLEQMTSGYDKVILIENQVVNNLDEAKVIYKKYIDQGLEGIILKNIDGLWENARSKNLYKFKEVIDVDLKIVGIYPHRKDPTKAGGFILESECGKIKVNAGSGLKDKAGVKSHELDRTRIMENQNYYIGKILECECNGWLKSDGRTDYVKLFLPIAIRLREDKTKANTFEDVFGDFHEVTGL

Series [2] addresses T1, T4 DNA ligase (Enterobacteria phage T4?). The settings on record: 5'-phosphate, 25 C.
The next series has as its target T2, SapI (UniProt O52712).
T2 sequence: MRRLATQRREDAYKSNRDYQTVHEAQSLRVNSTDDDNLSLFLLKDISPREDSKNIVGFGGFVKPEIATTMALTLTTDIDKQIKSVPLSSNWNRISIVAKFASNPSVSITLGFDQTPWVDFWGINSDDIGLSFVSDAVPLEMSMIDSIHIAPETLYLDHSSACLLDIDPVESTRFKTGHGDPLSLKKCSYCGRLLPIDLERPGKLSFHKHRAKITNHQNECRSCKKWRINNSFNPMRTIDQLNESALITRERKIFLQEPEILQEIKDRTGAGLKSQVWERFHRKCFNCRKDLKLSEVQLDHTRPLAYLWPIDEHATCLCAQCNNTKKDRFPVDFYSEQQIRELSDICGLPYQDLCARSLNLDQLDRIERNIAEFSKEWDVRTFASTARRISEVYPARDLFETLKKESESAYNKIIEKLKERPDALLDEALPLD
The series can be described thus: cleavage_in_vitro. The note with it: SapI digestion giving 3-base overhang.

Where two headings read alike, the source gives them in different places.

In series [1] (ligation of edge G:T mismatch), GNN/TNN mismatch overhang substrate displayed a relative ligation rate (fold faster than TNN/GNN) of 80.

With “NNNCGAAGAGCTGCGATCCAGTGCGCCGTGCATTGATCAACGCAANNNNNNATCTCTCTCTTTTCCTCCTCCTCCGTTGTTGTTGTTGAGAGAGATNNNNNNTTGCGTTGATCAATGCACGGCGCACTGGATCGCAGCTCTTCG [AAA 3-base overhang substrate]”, the binding signal in series [2] (correct ligations 1403.8 x10-5) amounted to 99.2 % fidelity.

“NNNCGAAGAGCTGCGATCCAGTGCGCCGTGCATTGATCAACGCAANNNNNNATCTCTCTCTTTTCCTCCTCCTCCGTTGTTGTTGTTGAGAGAGATNNNNNNTTGCGTTGATCAATGCACGGCGCACTGGATCGCAGCTCTTCG [GGC 3-base overhang substrate]”: the binding signal in series [2] (correct ligations 864.7 x10-5) was 53.6 % fidelity.

The substance “NNNCGAAGAGCTGCGATCCAGTGCGCCGTGCATTGATCAACGCAANNNNNNATCTCTCTCTTTTCCTCCTCCTCCGTTGTTGTTGTTGAGAGAGATNNNNNNTTGCGTTGATCAATGCACGGCGCACTGGATCGCAGCTCTTCG [TAA 3-base overhang substrate]” displayed a binding signal in series [2] (correct ligations only 209.0 x10-5) of 98.6 % fidelity.

Turning to “TCAGGTNNNCGAAGAGCTGCGATCCAGTGCGCCGTGCATTGATCAACGCAANNNNNNATCTCTCTCTTTTCCTCCTCCTCCGTTGTTGTTGTTGAGAGAG [ligation library precursor (extended)]”, the activity with SapI was > 95 % cut.

TNN/GNN mismatch overhang substrate yielded a relative ligation rate (relative to GNN/TNN) in series [1] (stated as about 80-fold slower than 5'-G mismatch) of 0.0125.
